Laboratory results published in patent US20160074488A1 (UNIVERSITY OF CHICAGO, published 2016).

B2: Q11 β-sheet fibrillizing peptide (assembled as Q11 nanofibers, gels or microgels) (peptide)
peptide: QQKFQFQFEQQ
notes: Synthetic peptide; stands in the assays as a supramolecular nanofiber of many copies; also called Q11 gels; Q11 microgels

Tests used:
[1] = biological target: the molecule itself; experiment: circular dichroism (FIGS. 1B-C)
[2] = biological target: B2; experiment: circular dichroism
[3] = biological target: the molecule itself; experiment: TEM and thioflavin T fluorescence
[4] = biological target: T1, βTail-cutinase (fusion of βTail and the fungal enzyme cutinase); experiment: loss of protein from the supernatant (µBCA)
T1 construct: also called βT-cut

[5] = biological target: gold-labeled streptavidin (streptavidin-5 nm gold particles, Invitrogen cat. # A32360) (UniProt P22629 37-163, limits assumed, bound to 5 nm gold particles); experiment: gold TEM
[6] = biological target: B2; experiment: loss of tryptophan fluorescence from the supernatant

gold-labeled streptavidin (streptavidin-5 nm gold particles, Invitrogen cat. # A32360), sequence (P22629 37-163 limits assumed, one chain of several): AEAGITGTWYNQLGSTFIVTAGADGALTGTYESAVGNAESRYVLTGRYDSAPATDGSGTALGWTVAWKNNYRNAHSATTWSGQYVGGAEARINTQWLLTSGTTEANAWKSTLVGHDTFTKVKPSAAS

MALKVELEKLKSELVVLHSELHKLKSEL [βTail peptide]
binding result [1]: binds
binding result [2]: binds

B1: HK-Q11 β-sheet fibrillizing peptide (nanofibers) (peptide)
peptide: QQKFQFQFHQQ
notes: Synthetic peptide assembled into nanofibers
binding result [3]: binds

B2
binding result [1]: binds
binding result [4]: binds
binding result [5]: no binding

B3: Tryptophan-terminated βTail (peptide)
peptide: WGSGSMALKVELEKLKSELVVLHSELHKLKSEL
notes: Synthetic peptide; also called W-βTail; W-βT
binding result [6]: binds
